Assay results from PMC9482650, “Quantitative fragmentomics allow affinity mapping of interactomes” (Nature Communications, 2022).

Legend:
Experiment in all cases: holdup assay
Design in all cases: key: below the threshold = too weak to quantify, mostly under pKd 3.1 to 4
Conditions in all cases: plain residues with an end cap or a label only (N-terminal biotin on a linker: ado-ado)
[1] = molecular target: T1, ARHGEF11, O15085
T1 sequence (O15085 42-136, limits assumed, looked up): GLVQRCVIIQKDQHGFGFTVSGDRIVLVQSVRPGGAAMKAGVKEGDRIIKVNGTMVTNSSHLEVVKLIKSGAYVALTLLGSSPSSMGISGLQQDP

[2] = molecular target: T2, CARD11, Q9BXL7
T2 sequence (Q9BXL7 662-765, limits assumed, looked up): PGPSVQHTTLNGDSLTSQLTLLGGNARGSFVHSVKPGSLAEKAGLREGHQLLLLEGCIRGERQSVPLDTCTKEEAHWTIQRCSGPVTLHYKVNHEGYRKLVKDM

[3] = molecular target: T3, DFNB31_3, Q9P202
T3 sequence (Q9P202 811-907, limits assumed, looked up): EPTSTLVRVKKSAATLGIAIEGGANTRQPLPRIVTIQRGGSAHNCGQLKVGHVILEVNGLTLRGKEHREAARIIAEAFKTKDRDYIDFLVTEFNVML

[4] = molecular target: DLG1_2, Q12959
[5] = molecular target: DLG1_3, Q12959
[6] = molecular target: DLG2_3, Q15700
[7] = molecular target: FRMPD2_2, Q68DX3
[8] = molecular target: GORASP1, Q9BQQ3
[9] = molecular target: T4, GRIP1_3, Q9Y3R0
T4 sequence (Q9Y3R0 247-346, limits assumed, looked up): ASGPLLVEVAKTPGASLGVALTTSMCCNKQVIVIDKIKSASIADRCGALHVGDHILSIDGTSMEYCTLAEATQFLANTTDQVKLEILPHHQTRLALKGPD

[10] = molecular target: T5, GRIP1_5, Q9Y3R0
T5 sequence (Q9Y3R0 568-668, limits assumed, looked up): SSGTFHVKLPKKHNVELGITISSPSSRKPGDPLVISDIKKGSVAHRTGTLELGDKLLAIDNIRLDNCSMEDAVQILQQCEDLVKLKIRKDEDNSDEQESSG

[11] = molecular target: GRIP2_3, Q9C0E4
[12] = molecular target: GRIP2_5, Q9C0E4
[13] = molecular target: HTRA2, O43464
[14] = molecular target: Inadl_1, Q8NI35
[15] = molecular target: Inadl_4, Q8NI35
[16] = molecular target: T6, LNX2_3, Q8N448
T6 sequence (Q8N448 463-564, limits assumed, looked up): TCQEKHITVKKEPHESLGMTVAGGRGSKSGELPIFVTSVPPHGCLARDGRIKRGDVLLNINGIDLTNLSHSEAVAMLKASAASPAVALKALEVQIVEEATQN

[17] = molecular target: MAGI2_2, Q86UL8
[18] = molecular target: MAGI2_5, Q86UL8
[19] = molecular target: MAGI2_6, Q86UL8
[20] = molecular target: MAGI3_2, Q5TCQ9
[21] = molecular target: T7, MPDZ_10, O75970
T7 sequence (O75970 1624-1722, limits assumed, looked up): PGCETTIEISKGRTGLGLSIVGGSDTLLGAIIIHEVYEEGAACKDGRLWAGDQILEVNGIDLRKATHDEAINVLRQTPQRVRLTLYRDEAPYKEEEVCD

[22] = molecular target: T8, NHERF3_1, Q5T2W1
T8 sequence (Q5T2W1 4-100, limits assumed, looked up): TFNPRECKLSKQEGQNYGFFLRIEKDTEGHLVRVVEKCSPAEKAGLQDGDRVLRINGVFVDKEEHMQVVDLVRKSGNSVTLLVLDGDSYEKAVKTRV

[23] = molecular target: NHERF4_2, Q86UT5
[24] = molecular target: PTPN3, P26045
[25] = molecular target: T9, RADIL, Q96JH8
T9 sequence (Q96JH8 971-1071, limits assumed, looked up): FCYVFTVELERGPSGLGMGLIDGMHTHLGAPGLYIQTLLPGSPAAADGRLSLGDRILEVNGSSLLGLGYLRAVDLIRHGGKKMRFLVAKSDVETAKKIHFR

[26] = molecular target: SCRIB_3, Q14160
[27] = molecular target: T10, SNTA1, Q13424
T10 sequence (Q13424 82-180, limits assumed, looked up): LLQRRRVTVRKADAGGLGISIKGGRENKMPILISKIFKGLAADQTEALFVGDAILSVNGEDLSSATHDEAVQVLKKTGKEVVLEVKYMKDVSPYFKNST

DLG1_3, Q12959, sequence (Q12959 457-571): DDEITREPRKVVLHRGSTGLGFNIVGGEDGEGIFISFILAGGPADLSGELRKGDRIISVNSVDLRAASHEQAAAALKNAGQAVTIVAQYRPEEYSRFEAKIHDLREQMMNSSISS
GRIP2_5, Q9C0E4, sequence (Q9C0E4 544-642): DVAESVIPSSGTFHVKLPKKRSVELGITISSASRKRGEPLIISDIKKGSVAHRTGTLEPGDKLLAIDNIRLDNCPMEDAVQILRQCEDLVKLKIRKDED
MAGI2_6, Q86UL8, sequence (Q86UL8 1141-1229): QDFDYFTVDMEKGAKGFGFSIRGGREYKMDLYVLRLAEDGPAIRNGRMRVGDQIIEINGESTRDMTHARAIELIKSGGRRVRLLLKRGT
PTPN3, P26045, sequence (P26045 505-587): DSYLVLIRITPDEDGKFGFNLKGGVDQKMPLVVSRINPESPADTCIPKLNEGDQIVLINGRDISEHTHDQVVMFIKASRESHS
MAGI3_2, Q5TCQ9, sequence (Q5TCQ9 398-503): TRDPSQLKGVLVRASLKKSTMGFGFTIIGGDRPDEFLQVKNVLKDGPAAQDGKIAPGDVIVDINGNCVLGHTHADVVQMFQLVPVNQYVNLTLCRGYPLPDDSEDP
NHERF4_2, Q86UT5, sequence (Q86UT5 220-308): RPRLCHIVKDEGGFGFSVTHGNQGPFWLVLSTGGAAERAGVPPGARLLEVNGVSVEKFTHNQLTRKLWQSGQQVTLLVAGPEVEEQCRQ
GORASP1, Q9BQQ3, sequence (Q9BQQ3 1-208): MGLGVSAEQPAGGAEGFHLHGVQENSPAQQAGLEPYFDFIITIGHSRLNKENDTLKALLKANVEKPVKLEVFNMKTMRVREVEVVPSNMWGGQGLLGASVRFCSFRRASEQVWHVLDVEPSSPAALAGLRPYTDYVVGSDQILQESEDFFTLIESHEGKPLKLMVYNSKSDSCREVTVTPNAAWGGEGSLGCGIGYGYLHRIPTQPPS
Inadl_1, Q8NI35, sequence (Q8NI35 113-229): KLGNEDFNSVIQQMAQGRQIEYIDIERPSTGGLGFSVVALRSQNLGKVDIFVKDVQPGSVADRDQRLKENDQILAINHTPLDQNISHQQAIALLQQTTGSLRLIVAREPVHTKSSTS
FRMPD2_2, Q68DX3, sequence (Q68DX3 944-1038): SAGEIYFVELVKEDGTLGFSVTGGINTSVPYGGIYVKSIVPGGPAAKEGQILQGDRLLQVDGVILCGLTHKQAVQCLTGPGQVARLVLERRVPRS
MAGI2_2, Q86UL8, sequence (Q86UL8 410-522): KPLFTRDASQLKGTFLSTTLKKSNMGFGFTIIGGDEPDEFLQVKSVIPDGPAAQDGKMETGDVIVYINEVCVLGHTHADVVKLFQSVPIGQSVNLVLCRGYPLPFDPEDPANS
GRIP2_3, Q9C0E4, sequence (Q9C0E4 238-339): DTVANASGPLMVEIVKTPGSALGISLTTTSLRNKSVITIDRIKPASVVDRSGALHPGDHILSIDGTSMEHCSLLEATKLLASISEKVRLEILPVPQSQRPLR
HTRA2, O43464, sequence (O43464 355-458): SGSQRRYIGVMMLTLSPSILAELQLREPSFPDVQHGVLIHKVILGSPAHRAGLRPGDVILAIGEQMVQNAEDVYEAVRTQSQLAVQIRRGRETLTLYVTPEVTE
SCRIB_3, Q14160, sequence (Q14160 999-1103): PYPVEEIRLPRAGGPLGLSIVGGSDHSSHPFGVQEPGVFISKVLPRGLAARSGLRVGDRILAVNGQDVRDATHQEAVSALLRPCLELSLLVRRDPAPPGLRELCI
DLG1_2, Q12959, sequence (Q12959 314-412): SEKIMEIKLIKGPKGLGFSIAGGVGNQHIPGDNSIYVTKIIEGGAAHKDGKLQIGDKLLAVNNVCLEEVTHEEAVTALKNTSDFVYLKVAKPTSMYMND
Inadl_4, Q8NI35, sequence (Q8NI35 547-651): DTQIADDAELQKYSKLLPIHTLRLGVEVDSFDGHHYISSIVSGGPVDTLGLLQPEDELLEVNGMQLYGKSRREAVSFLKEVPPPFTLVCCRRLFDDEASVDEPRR
MAGI2_5, Q86UL8, sequence (Q86UL8 915-1017): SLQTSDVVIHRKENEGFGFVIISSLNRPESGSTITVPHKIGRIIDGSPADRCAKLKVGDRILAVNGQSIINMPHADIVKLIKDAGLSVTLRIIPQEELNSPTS

LGHTPFVDEL [UQCRC2, P22695]
pKd [1]: 3.79
pKd [2]: 3.53
pKd [3]: 3.82
pKd [4]: below the threshold
pKd [5]: below the threshold
pKd [6]: below the threshold
pKd [7]: below the threshold
pKd [8]: below the threshold
pKd [9]: below the threshold
pKd [10]: below the threshold
pKd [11]: below the threshold
pKd [12]: below the threshold
pKd [13]: below the threshold
pKd [14]: below the threshold
pKd [15]: below the threshold
pKd [16]: below the threshold
pKd [17]: below the threshold
pKd [18]: 3.47
pKd [19]: below the threshold
pKd [20]: below the threshold
pKd [21]: below the threshold
pKd [22]: 4.73
pKd [23]: below the threshold
pKd [24]: 4.1
pKd [25]: 3.66
pKd [26]: below the threshold
pKd [27]: below the threshold

GDGLDDEIAV [NOS1AP, O75052]
pKd [1]: 4.37
pKd [2]: below the threshold
pKd [3]: below the threshold
pKd [4]: below the threshold
pKd [5]: below the threshold
pKd [6]: below the threshold
pKd [7]: below the threshold
pKd [8]: below the threshold
pKd [9]: below the threshold
pKd [10]: below the threshold
pKd [11]: below the threshold
pKd [12]: below the threshold
pKd [13]: below the threshold
pKd [14]: below the threshold
pKd [15]: below the threshold
pKd [16]: below the threshold
pKd [17]: below the threshold
pKd [18]: below the threshold
pKd [19]: below the threshold
pKd [20]: 3.98
pKd [21]: below the threshold
pKd [22]: below the threshold
pKd [23]: below the threshold
pKd [24]: 3.79
pKd [25]: below the threshold
pKd [26]: below the threshold
pKd [27]: 3.75

DFRHKSSFVI [JAM3, Q9BX67]
pKd [1]: below the threshold
pKd [2]: below the threshold
pKd [3]: 3.86
pKd [4]: below the threshold
pKd [5]: below the threshold
pKd [6]: 3.52
pKd [7]: below the threshold
pKd [8]: 4.82
pKd [9]: below the threshold
pKd [10]: below the threshold
pKd [11]: below the threshold
pKd [12]: below the threshold
pKd [13]: below the threshold
pKd [14]: below the threshold
pKd [15]: below the threshold
pKd [16]: below the threshold
pKd [17]: below the threshold
pKd [18]: below the threshold
pKd [19]: below the threshold
pKd [20]: below the threshold
pKd [21]: below the threshold
pKd [22]: below the threshold
pKd [23]: below the threshold
pKd [24]: 3.84
pKd [25]: 3.96
pKd [26]: below the threshold
pKd [27]: below the threshold

YPKQMPLSQV [FZD8, Q9H461]
pKd [1]: 3.89
pKd [2]: below the threshold
pKd [3]: below the threshold
pKd [4]: below the threshold
pKd [5]: 3.64
pKd [6]: below the threshold
pKd [7]: below the threshold
pKd [8]: below the threshold
pKd [9]: below the threshold
pKd [10]: below the threshold
pKd [11]: below the threshold
pKd [12]: below the threshold
pKd [13]: below the threshold
pKd [14]: below the threshold
pKd [15]: below the threshold
pKd [16]: below the threshold
pKd [17]: 4.29
pKd [18]: below the threshold
pKd [19]: below the threshold
pKd [20]: 4.44
pKd [21]: 3.7
pKd [22]: below the threshold
pKd [23]: below the threshold
pKd [24]: below the threshold
pKd [25]: 3.7
pKd [26]: below the threshold
pKd [27]: 3.67

QYPGSPDSWV [PKP4, Q99569]
pKd [1]: below the threshold
pKd [2]: below the threshold
pKd [3]: 3.75
pKd [4]: 4.68
pKd [5]: below the threshold
pKd [6]: below the threshold
pKd [7]: 4.34
pKd [8]: 3.79
pKd [9]: below the threshold
pKd [10]: below the threshold
pKd [11]: below the threshold
pKd [12]: 3.58
pKd [13]: 4.05
pKd [14]: below the threshold
pKd [15]: below the threshold
pKd [16]: below the threshold
pKd [17]: below the threshold
pKd [18]: below the threshold
pKd [19]: 5.4
pKd [20]: below the threshold
pKd [21]: 3.7
pKd [22]: below the threshold
pKd [23]: below the threshold
pKd [24]: 4.96
pKd [25]: 4.89
pKd [26]: 4.48
pKd [27]: 4.13
